Experimental data: patent US20220363757A1 (SYMPHOGEN A S, published 2022)

T1: human LAG-3 domain 1-2 Fc fusion, point mutation #63 D123A (human, UniProt P18627 23-266)
T1 construct: not shown: human IgG1 Fc, AA P101-K330
T1 sequence: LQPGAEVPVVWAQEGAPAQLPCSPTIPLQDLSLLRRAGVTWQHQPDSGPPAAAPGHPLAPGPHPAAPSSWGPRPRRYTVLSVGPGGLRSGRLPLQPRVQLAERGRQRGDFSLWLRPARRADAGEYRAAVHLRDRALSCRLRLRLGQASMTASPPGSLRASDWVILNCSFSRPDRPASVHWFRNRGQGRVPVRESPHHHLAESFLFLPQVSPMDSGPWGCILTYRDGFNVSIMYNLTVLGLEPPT

T2: human LAG-3 domain 1-2 Fc fusion, point mutation #26 P79A (human, UniProt P18627 23-266)
T2 construct: not shown: human IgG1 Fc, AA P101-K330
T2 sequence: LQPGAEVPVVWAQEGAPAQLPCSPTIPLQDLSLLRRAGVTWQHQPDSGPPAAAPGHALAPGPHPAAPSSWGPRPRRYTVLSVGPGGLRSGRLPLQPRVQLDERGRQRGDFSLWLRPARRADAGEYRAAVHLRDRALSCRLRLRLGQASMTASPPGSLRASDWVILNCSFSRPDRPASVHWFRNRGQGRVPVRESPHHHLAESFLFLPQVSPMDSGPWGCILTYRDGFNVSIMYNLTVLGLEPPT

T3: human LAG-3 domain 1-2 Fc fusion, point mutation #54 R110A (human, UniProt P18627 23-266)
T3 construct: not shown: human IgG1 Fc, AA P101-K330
T3 sequence: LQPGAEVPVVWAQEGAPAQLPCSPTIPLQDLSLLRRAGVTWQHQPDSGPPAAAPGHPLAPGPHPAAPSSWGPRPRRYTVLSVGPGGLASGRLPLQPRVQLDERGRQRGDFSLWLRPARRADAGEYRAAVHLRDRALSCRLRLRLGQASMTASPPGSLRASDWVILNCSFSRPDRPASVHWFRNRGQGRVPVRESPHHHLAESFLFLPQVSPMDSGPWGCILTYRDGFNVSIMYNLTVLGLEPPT

T4: human LAG-3 domain 1-2 Fc fusion, point mutation #29 P82A (human, UniProt P18627 23-266)
T4 construct: not shown: human IgG1 Fc, AA P101-K330
T4 sequence: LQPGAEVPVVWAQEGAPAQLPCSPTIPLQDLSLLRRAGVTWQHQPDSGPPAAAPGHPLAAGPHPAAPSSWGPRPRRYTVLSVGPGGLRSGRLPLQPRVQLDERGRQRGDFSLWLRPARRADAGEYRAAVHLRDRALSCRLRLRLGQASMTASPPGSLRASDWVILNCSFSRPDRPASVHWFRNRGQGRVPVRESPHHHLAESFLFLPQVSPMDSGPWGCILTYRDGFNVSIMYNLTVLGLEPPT

T5: human LAG-3 domain 1-2 Fc fusion, point mutation #72 S133A (human, UniProt P18627 23-266)
T5 construct: not shown: human IgG1 Fc, AA P101-K330
T5 sequence: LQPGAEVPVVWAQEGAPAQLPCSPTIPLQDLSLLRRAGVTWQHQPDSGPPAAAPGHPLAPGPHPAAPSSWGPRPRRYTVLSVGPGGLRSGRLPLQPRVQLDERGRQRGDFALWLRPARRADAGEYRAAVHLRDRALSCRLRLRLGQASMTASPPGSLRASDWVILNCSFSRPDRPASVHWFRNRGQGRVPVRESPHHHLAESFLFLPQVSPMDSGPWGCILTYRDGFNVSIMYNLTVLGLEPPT

T6: human LAG-3 domain 1-2 Fc fusion, point mutation #35 A88S (human, UniProt P18627 23-266)
T6 construct: not shown: human IgG1 Fc, AA P101-K330
T6 sequence: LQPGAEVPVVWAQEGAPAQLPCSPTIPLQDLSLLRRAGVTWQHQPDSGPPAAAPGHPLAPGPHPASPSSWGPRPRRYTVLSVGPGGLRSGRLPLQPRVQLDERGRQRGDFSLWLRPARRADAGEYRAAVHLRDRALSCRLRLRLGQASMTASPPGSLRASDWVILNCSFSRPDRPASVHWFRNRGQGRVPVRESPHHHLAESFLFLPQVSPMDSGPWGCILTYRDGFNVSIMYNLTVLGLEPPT

T7: human LAG-3 domain 1-2 Fc fusion, point mutation #38 S91A (human, UniProt P18627 23-266)
T7 construct: not shown: human IgG1 Fc, AA P101-K330
T7 sequence: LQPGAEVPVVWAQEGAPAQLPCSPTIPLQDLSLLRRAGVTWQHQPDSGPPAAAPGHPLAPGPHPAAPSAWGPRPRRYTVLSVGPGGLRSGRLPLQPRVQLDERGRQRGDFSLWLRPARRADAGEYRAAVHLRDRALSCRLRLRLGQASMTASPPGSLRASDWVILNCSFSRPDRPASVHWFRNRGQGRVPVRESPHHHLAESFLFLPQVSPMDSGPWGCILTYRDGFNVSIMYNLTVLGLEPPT

T8: human LAG-3 domain 1-2 Fc fusion, point mutation #21 A74S (human, UniProt P18627 23-266)
T8 construct: not shown: human IgG1 Fc, AA P101-K330
T8 sequence: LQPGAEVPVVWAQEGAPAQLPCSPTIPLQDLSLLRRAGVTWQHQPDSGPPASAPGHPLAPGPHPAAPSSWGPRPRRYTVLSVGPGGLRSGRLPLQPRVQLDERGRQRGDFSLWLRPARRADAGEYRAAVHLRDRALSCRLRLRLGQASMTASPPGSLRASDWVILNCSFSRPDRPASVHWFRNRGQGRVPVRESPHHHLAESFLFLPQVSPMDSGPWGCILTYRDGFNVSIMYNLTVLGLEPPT

T9: human LAG-3 domain 1-2 Fc fusion, point mutation #44 R97A (human, UniProt P18627 23-266)
T9 construct: not shown: human IgG1 Fc, AA P101-K330
T9 sequence: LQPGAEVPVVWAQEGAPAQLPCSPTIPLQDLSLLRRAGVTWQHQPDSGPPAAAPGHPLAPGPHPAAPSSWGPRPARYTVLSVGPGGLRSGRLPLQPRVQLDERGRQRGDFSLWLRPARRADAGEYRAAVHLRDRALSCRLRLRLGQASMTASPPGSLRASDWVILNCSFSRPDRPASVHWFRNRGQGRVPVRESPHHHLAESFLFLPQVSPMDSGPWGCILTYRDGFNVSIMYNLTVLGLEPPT


Tests used:
Assay in all cases: SPR, Fab over captured mutant LAG-3-Fc;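 note: fc fusion variants captured on anti-human IgG Fc sensor, Fab injected with association then dissociation phases, KD obtained from Langmuir one-to-one fit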
[1] = target: T1, human LAG-3 domain 1-2 Fc fusion, point …
[2] = target: T2, human LAG-3 domain 1-2 Fc fusion, point …
[3] = target: T3, human LAG-3 domain 1-2 Fc fusion, point …
[4] = target: T4, human LAG-3 domain 1-2 Fc fusion, point …
[5] = target: T5, human LAG-3 domain 1-2 Fc fusion, point …
[6] = target: T6, human LAG-3 domain 1-2 Fc fusion, point …
[7] = target: T7, human LAG-3 domain 1-2 Fc fusion, point …
[8] = target: T8, human LAG-3 domain 1-2 Fc fusion, point …
[9] = target: T9, human LAG-3 domain 1-2 Fc fusion, point …

| KD mutant/KD wild type [1] | KD mutant/KD wild type [2] | binding result [3] | KD mutant/KD wild type [4] | KD mutant/KD wild type [5] | KD mutant/KD wild type [6] | KD mutant/KD wild type [7] | KD mutant/KD wild type [8] | KD mutant/KD wild type [9] | KD mutant/KD wild type [3] | binding result [5] | Binder |
| --- | --- | --- | --- | --- | --- | --- | --- | --- | --- | --- | --- |
| 0.5 fold | 0.4 fold |  | 0.8 fold |  | 0.6 fold | 0.7 fold | 0.7 fold | 0.6 fold | 0.6 fold | no binding (tested: 300 nM) | Fab fragment of antibody 15572 (Fab, V domains shown, not shown: a dimerising Fc or GST, monomeric Fab made by GingisKHAN digestion of the IgG1) VH: QLQLQESGPGLVKPSETLSLTCTVSGDSISSSSYYWGWIRQPPGKGLEWIGSIFYSGNTYYNPSLKSRVTISVDTSKNQFSLKLSSVTAADTAVYYCAREDDFLTDYYGAFDIWGQGTMVTVSS VL: not shown |
| 1 fold | 0.9 fold |  | 1 fold | 2.2 fold | 3.7 fold | 5.3 fold | 1 fold | 0.9 fold | 0.9 fold |  | Fab fragment of antibody 15532 (Fab, V domains shown, not shown: a dimerising Fc or GST, monomeric Fab made by GingisKHAN digestion of the IgG1) VH: QVQLQQWGAGLLRPSETLSLTCAVYGESFSGYYWNWIRQPPGKGLEWIGEINHSGSTNYNPSLKSRVTISVDTSKTQFSLKLSSVTAADTAVYYCARGWDLLDWNDYWNEYWGQGTLVTVSS VL: EIVLTQSPATLSLSPGERATLSCRASQSVSSYLAWYQQKPGQAPRLLIYDASNRATGIPARFSGSGSGTDFTLTISSLEPEDFAVYYCQQRSNWPLTFGGGTKVEIKR |

Second part, the binder before the results:

| Binder | KD mutant/KD wild type [1] | KD mutant/KD wild type [2] | binding result [3] | KD mutant/KD wild type [4] | KD mutant/KD wild type [5] | KD mutant/KD wild type [6] | KD mutant/KD wild type [7] | KD mutant/KD wild type [8] | KD mutant/KD wild type [9] | KD mutant/KD wild type [3] | binding result [5] |
| --- | --- | --- | --- | --- | --- | --- | --- | --- | --- | --- | --- |
| Fab fragment of antibody 15011 (Fab, V domains shown, not shown: a dimerising Fc or GST, monomeric Fab made by GingisKHAN digestion of the IgG1) VH: EVQLLESGGGLVQPGGSLRLSCAASGFDFRSYAMMWVRQAPGKGLEWVGGINGEVGGSNTYYAPAVKGRATISRDNSKNTLYLQMNSLRAEDTAVYYCVKGAGACGICNDDIDAWGQGTLVTVSS VL: SYELTQDPAVSVALGQTVRITCSGAGSYAGSYYYGWHQQKPGQAPVTVIYDNDKRPSNIPDRFSGSSSGNTASLTITGAQAEDEADYYCGSTNDNDDGGLFGSGTKVTVLG | 0.8 fold | 0.6 fold | no binding (tested: 300 nM) | 0.9 fold | 0.6 fold | 0.9 fold | 0.8 fold | 0.8 fold | 0.7 fold |  |  |
| Fab fragment of antibody 15431 (Fab, V domains shown, not shown: a dimerising Fc or GST, monomeric Fab made by GingisKHAN digestion of the IgG1) VH: QVQLQQSGPGLVKPSQTLSLTCAISGDSVSSNSAAWNWIRQSPSRGLEWLGRTYYRSKWYNDYAVSVKSRITINPDTSKNQFSLQLNSVTPEDTAVYYCARDDDWNDFDYWGQGTLVTVSS VL: EIVLTQSPATLSLSPGERATLSCRASQSVSSYLAWYQQKPGQAPRLLIYDASNRATGIPARFSGSGSGTDFTLTISSLEPEDFAVYYCQQRSNWPLTFGGGTKVEIKR | 0.9 fold | 0.4 fold |  | 1 fold |  | 0.6 fold | 0.7 fold | 0.8 fold | 1.3 fold | 0.9 fold | no binding (tested: 300 nM) |
